{"source": "the supplement of paper PMC5998384", "test_system": "HeLa Kyoto", "assay": "melting temperature (median over replicates), in situ; higher = more thermally stable"}
{"sequence": "MGAKQSGPAAANGRTRAYSGSDLPSSSSGGANGTAGGGGGARAAAAGRFPAQVPSAHQPSASGGAAAAAAAPAAPAAPRSRSLGGAVGSVASGARAAQSPFSIPNSSSGPYGSQDSVHSSPEDGGGGRDRPVGGSPGGPRLVIGSLPAHLSPHMFGGFKCPVCSKFVSSDEMDLHLVMCLTKPRITYNEDVLSKDAGECAICLEELQQGDTIARLPCLCIYHKGCIDEWFEVNRSCPEHPSD [ZNRF2]", "values": [{"measurement": "melting temperature", "setting": "cell cycle stage: G1/S", "result": 52.7, "unit": "°C"}, {"measurement": "melting temperature", "setting": "cell cycle stage: mitosis", "result": 55.1, "unit": "°C"}]}
{"sequence": "MGEFKVHRVRFFNYVPSGIRCVAYNNQSNRLAVSRTDGTVEIYNLSANYFQEKFFPGHESRATEALCWAEGQRLFSAGLNGEIMEYDLQALNIKYAMDAFGGPIWSMAASPSGSQLLVGCEDGSVKLFQITPDKIQFERNFDRQKSRILSLSWHPSGTHIAAGSIDYISVFDVKSGSAVHKMIVDRQYMGVSKRKCIVWGVAFLSDGTIISVDSAGKVQFWDSATGTLVKSHLIANADVQSIAVADQEDSFVVGTAEGTVFHFQLVPVTSNSSEKQWVRTKPFQHHTHDVRTVAHSPTALISGGTDTHLVFRPLMEKVEVKNYDAALRKITFPHRCLISCSKKRQLLLFQFAHHLELWRLGSTVATGKNGDTLPLSKNADHLLHLKTKGPENIICSCISPCGSWIAYSTVSRFFLYRLNYEHDNISLKRVSKMPAFLRSALQILFSEDSTKLFVASNQGALHIVQLSGGSFKHLHAFQPQSGTVEAMCLLAVSPDGNWLAASGTSAGVHVYNVKQLKLHCTVPAYNFPVTAMAIAPNTNNLVIAHSDQQVFEYSIPDKQYTDWSRTVQKQGFHHLWLQRDTPITHISFHPKRPMHILLHDAYMFCIIDKSLPLPNDKTLLYNPFPPTNESDVIRRRTAHAFKISKIYKPLLFMDLLDERTLVAVERPLDDIIAQLPPPIKKKKFGT [UTP4]", "values": [{"measurement": "melting temperature", "setting": "cell cycle stage: G1/S", "result": 54.3, "unit": "°C"}, {"measurement": "melting temperature", "setting": "cell cycle stage: mitosis", "result": 52.3, "unit": "°C"}]}
{"sequence": "MGLLDRLSVLLGLKKKEVHVLCLGLDNSGKTTIINKLKPSNAQSQNILPTIGFSIEKFKSSSLSFTVFDMSGQGRYRNLWEHYYKEGQAIIFVIDSSDRLRMVVAKEELDTLLNHPDIKHRRIPILFFANKMDLRDAVTSVKVSQLLCLENIKDKPWHICASDAIKGEGLQEGVDWLQDQIQTVKT [ARL6]", "values": [{"measurement": "melting temperature", "setting": "cell cycle stage: mitosis", "result": 50.3, "unit": "°C"}]}
{"sequence": "MKVLGRSFFWVLFPVLPWAVQAVEHEEVAQRVIKLHRGRGVAAMQSRQWVRDSCRKLSGLLRQKNAVLNKLKTAIGAVEKDVGLSDEEKLFQVHTFEIFQKELNESENSVFQAVYGLQRALQGDYKDVVNMKESSRQRLEALREAAIKEETEYMELLAAEKHQVEALKNMQHQNQSLSMLDEILEDVRKAADRLEEEIEEHAFDDNKSVKGVNFEAVLRVEEEEANSKQNITKREVEDDLGLSMLIDSQNNQYILTKPRDSTIPRADHHFIKDIVTIGMLSLPCGWLCTAIGLPTMFGYIICGVLLGPSGLNSIKSIVQVETLGEFGVFFTLFLVGLEFSPEKLRKVWKISLQGPCYMTLLMIAFGLLWGHLLRIKPTQSVFISTCLSLSSTPLVSRFLMGSARGDKEGDIDYSTVLLGMLVTQDVQLGLFMAVMPTLIQAGASASSSIVVEVLRILVLIGQILFSLAAVFLLCLVIKKYLIGPYYRKLHMESKGNKEILILGISAFIFLMLTVTELLDVSMELGCFLAGALVSSQGPVVTEEIATSIEPIRDFLAIVFFASIGLHVFPTFVAYELTVLVFLTLSVVVMKFLLAALVLSLILPRSSQYIKWIVSAGLAQVSEFSFVLGSRARRAGVISREVYLLILSVTTLSLLLAPVLWRAAITRCVPRPERRSSL [TMCO3]", "values": [{"measurement": "melting temperature", "setting": "cell cycle stage: G1/S", "result": 54.4, "unit": "°C"}, {"measurement": "melting temperature", "setting": "cell cycle stage: mitosis", "result": 52.9, "unit": "°C"}]}
{"sequence": "MLAGAGRPGLPQGRHLCWLLCAFTLKLCQAEAPVQEEKLSASTSNLPCWLVEEFVVAEECSPCSNFRAKTTPECGPTGYVEKITCSSSKRNEFKSCRSALMEQRLFWKFEGAVVCVALIFACLVIIRQRQLDRKALEKVRKQIESI [JTB]", "values": [{"measurement": "melting temperature", "setting": "cell cycle stage: mitosis", "result": 53.4, "unit": "°C"}]}
{"sequence": "MLQQDSNDDTEDVSLFDAEEETTNRPRKAKIRHPVASFFHLFFRVSAIIVYLLCGLLSSSFITCMVTIILLLSCDFWAVKNVTGRLMVGLRWWNHIDEDGKSHWVFESRKESSQENKTVSEAESRIFWLGLIACPVLWVIFAFSALFSFRVKWLAVVIMGVVLQGANLYGYIRCKVRSRKHLTSMATSYFGKQFLRQNTGDDQTS [TVP23B]", "values": [{"measurement": "melting temperature", "setting": "cell cycle stage: mitosis", "result": 56, "unit": "°C"}]}
{"sequence": "MLRRVTVAAVCATRRKLCEAGRELAALWGIETRGRCEDSAAARPFPILAMPGRNKAKSTCSCPDLQPNGQDLGENSRVARLGADESEEEGRRGSLSNAGDPEIVKSPSDPKQYRYIKLQNGLQALLISDLSNMEGKTGNTTDDEEEEEVEEEEEDDDEDSGAEIEDDDEEGFDDEDEFDDEHDDDLDTEDNELEELEERAEARKKTTEKQSAAALCVGVGSFADPDDLPGLAHFLEHMVFMGSLKYPDENGFDAFLKKHGGSDNASTDCERTVFQFDVQRKYFKEALDRWAQFFIHPLMIRDAIDREVEAVDSEYQLARPSDANRKEMLFGSLARPGHPMGKFFWGNAETLKHEPRKNNIDTHARLREFWMRYYSSHYMTLVVQSKETLDTLEKWVTEIFSQIPNNGLPRPNFGHLTDPFDTPAFNKLYRVVPIRKIHALTITWALPPQQQHYRVKPLHYISWLVGHEGKGSILSFLRKKCWALALFGGNGETGFEQNSTYSVFSISITLTDEGYEHFYEVAYTVFQYLKMLQKLGPEKRIFEEIRKIEDNEFHYQEQTDPVEYVENMCENMQLYPLQDILTGDQLLFEYKPEVIGEALNQLVPQKANLVLLSGANEGKCDLKEKWFGTQYSIEDIENSWAELWNSNFELNPDLHLPAENKYIATDFTLKAFDCPETEYPVKIVNTPQGCLWYKKDNKFKIPKAYIRFHLISPLIQKSAANVVLFDIFVNILTHNLAEPAYEADVAQLEYKLVAGEHGLIIRVKGFNHKLPLLFQLIIDYLAEFNSTPAVFTMITEQLKKTYFNILIKPETLAKDVRLLILEYARWSMIDKYQALMDGLSLESLLSFVKEFKSQLFVEGLVQGNVTSTESMDFLKYVVDKLNFKPLEQEMPVQFQVVELPSGHHLCKVKALNKGDANSEVTVYYQSGTRSLREYTLMELLVMHMEEPCFDFLRTKQTLGYHVYPTCRNTSGILGFSVTVGTQATKYNSEVVDKKIEEFLSSFEEKIENLTEEAFNTQVTALIKLKECEDTHLGEEVDRNWNEVVTQQYLFDRLAHEIEALKSFSKSDLVNWFKAHRGPGSKMLSVHVVGYGKYELEEDGTPSSEDSNSSCEVMQLTYLPTSPLLADCIIPITDIRAFTTTLNLLPYHKIVK [NRDC]", "values": [{"measurement": "melting temperature", "setting": "cell cycle stage: G1/S", "result": 50.5, "unit": "°C"}, {"measurement": "melting temperature", "setting": "cell cycle stage: mitosis", "result": 50.9, "unit": "°C"}]}
{"sequence": "MLVTAYLAFVGLLASCLGLELSRCRAKPPGRACSNPSFLRFQLDFYQVYFLALAADWLQAPYLYKLYQHYYFLEGQIAILYVCGLASTVLFGLVASSLVDWLGRKNSCVLFSLTYSLCCLTKLSQDYFVLLVGRALGGLSTALLFSAFEAWYIHEHVERHDFPAEWIPATFARAAFWNHVLAVVAGVAAEAVASWIGLGPVAPFVAAIPLLALAGALALRNWGENYDRQRAFSRTCAGGLRCLLSDRRVLLLGTIQALFESVIFIFVFLWTPVLDPHGAPLGIIFSSFMAASLLGSSLYRIATSKRYHLQPMHLLSLAVLIVVFSLFMLTFSTSPGQESPVESFIAFLLIELACGLYFPSMSFLRRKVIPETEQAGVLNWFRVPLHSLACLGLLVLHDSDRKTGTRNMFSICSAVMVMALLAVVGLFTVVRHDAELRVPSPTEEPYAPEL [MFSD5]", "values": [{"measurement": "melting temperature", "setting": "cell cycle stage: mitosis", "result": 54.9, "unit": "°C"}]}
{"sequence": "MNCEREQLRGNQEAAAAPDTMAQPYASAQFAPPQNGIPAEYTAPHPHPAPEYTGQTTVPEHTLNLYPPAQTHSEQSPADTSAQTVSGTATQTDDAAPTDGQPQTQPSENTENKSQPKRLHVSNIPFRFRDPDLRQMFGQFGKILDVEIIFNERGSKGFGFVTFENSADADRAREKLHGTVVEGRKIEVNNATARVMTNKKTVNPYTNGWKLNPVVGAVYSPEFYAGTVLLCQANQEGSSMYSAPSSLVYTSAMPGFPYPAATAAAAYRGAHLRGRGRTVYNTFRAAAPPPPIPAYGGVVYQDGFYGADIYGGYAAYRYAQPTPATAAAYSDSYGRVYAADPYHHALAPAPTYGVGAMNAFAPLTDAKTRSHADDVGLVLSSLQASIYRGGYNRFAPY [RBFOX1]", "values": [{"measurement": "melting temperature", "setting": "cell cycle stage: G1/S", "result": 49.8, "unit": "°C"}]}
{"sequence": "MNHLPEDMENALTGSQSSHASLRNIHSINPTQLMARIESYEGREKKGISDVRRTFCLFVTFDLLFVTLLWIIELNVNGGIENTLEKEVMQYDYYSSYFDIFLLAVFRFKVLILAYAVCRLRHWWAIALTTAVTSAFLLAKVILSKLFSQGAFGYVLPIISFILAWIETWFLDFKVLPQEAEEENRLLIVQDASERAALIPGGLSDGQFYSPPESEAGSEEAEEKQDSEKPLLEL [STARD3NL]", "values": [{"measurement": "melting temperature", "setting": "cell cycle stage: G1/S", "result": 55.4, "unit": "°C"}]}
{"sequence": "MPGPSPGLRRALLGLWAALGLGLFGLSAVSQEPFWADLQPRVAFVERGGSLWLNCSTNCPRPERGGLETSLRRNGTQRGLRWLARQLVDIREPETQPVCFFRCARRTLQARGLIRTFQRPDRVELMPLPPWQPVGENFTLSCRVPGAGPRASLTLTLLRGAQELIRRSFAGEPPRARGAVLTATVLARREDHGANFSCRAELDLRPHGLGLFENSSAPRELRTFSLSPDAPRLAAPRLLEVGSERPVSCTLDGLFPASEARVYLALGDQNLSPDVTLEGDAFVATATATASAEQEGARQLVCNVTLGGENRETRENVTIYSFPAPLLTLSEPSVSEGQMVTVTCAAGAQALVTLEGVPAAVPGQPAQLQLNATENDDRRSFFCDATLDVDGETLIKNRSAELRVLYAPRLDDSDCPRSWTWPEGPEQTLRCEARGNPEPSVHCARSDGGAVLALGLLGPVTRALSGTYRCKAANDQGEAVKDVTLTVEYAPALDSVGCPERITWLEGTEASLSCVAHGVPPPDVICVRSGELGAVIEGLLRVAREHAGTYRCEATNPRGSAAKNVAVTVEYGPRFEEPSCPSNWTWVEGSGRLFSCEVDGKPQPSVKCVGSGGATEGVLLPLAPPDPSPRAPRIPRVLAPGIYVCNATNRHGSVAKTVVVSAESPPEMDESTCPSHQTWLEGAEASALACAARGRPSPGVRCSREGIPWPEQQRVSREDAGTYHCVATNAHGTDSRTVTVGVEYRPVVAELAASPPGGVRPGGNFTLTCRAEAWPPAQISWRAPPGALNIGLSSNNSTLSVAGAMGSHGGEYECAATNAHGRHARRITVRVAGPWLWVAVGGAAGGAALLAAGAGLAFYVQSTACKKGEYNVQEAESSGEAVCLNGAGGGAGGAAGAEGGPEAAGGAAESPAEGEVFAIQLTSA [ICAM5]", "values": [{"measurement": "melting temperature", "setting": "cell cycle stage: G1/S", "result": 54.5, "unit": "°C"}]}
{"sequence": "MPSETPQAEVGPTGCPHRSGPHSAKGSLEKGSPEDKEAKEPLWIRPDAPSRCTWQLGRPASESPHHHTAPAKSPKILPDILKKIGDTPMVRINKIGKKFGLKCELLAKCEFFNAGGSVKDRISLRMIEDAERDGTLKPGDTIIEPTSGNTGIGLALAAAVRGYRCIIVMPEKMSSEKVDVLRALGAEIVRTPTNARFDSPESHVGVAWRLKNEIPNSHILDQYRNASNPLAHYDTTADEILQQCDGKLDMLVASVGTGGTITGIARKLKEKCPGCRIIGVDPEGSILAEPEELNQTEQTTYEVEGIGYDFIPTVLDRTVVDKWFKSNDEEAFTFARMLIAQEGLLCGGSAGSTVAVAVKAAQELQEGQRCVVILPDSVRNYMTKFLSDRWMLQKGFLKEEDLTEKKPWWWHLRVQELGLSAPLTVLPTITCGHTIEILREKGFDQAPVVDEAGVILGMVTLGNMLSSLLAGKVQPSDQVGKVIYKQFKQIRLTDTLGRLSHILEMDHFALVVHEQIQYHSTGKSSQRQMVFGVVTAIDLLNFVAAQERDQK [CBS]", "values": [{"measurement": "melting temperature", "setting": "cell cycle stage: G1/S", "result": 55, "unit": "°C"}, {"measurement": "melting temperature", "setting": "cell cycle stage: mitosis", "result": 55.8, "unit": "°C"}]}
